This is an account of results in patent publication US20150216972A1 (SAMSUNG ELECTRONICS, published 2015).

The target of experiment [1] is T1, human c-Met/Fc fusion protein (R&D Systems) (human, UniProt P08581 25-932).
T1 construct: Bought reagent; also called human c-Met/Fc protein; not shown: Fc part of the bought fusion
Put plainly: ELISA, human c-Met/Fc coated at 2 ug/mL, hybridoma culture supernatant. On the procedure: Human c-Met/Fc fusion protein was seeded in an amount of 50 μL (2 μg/mL)/well to microtiter plates and allowed to adhere to the surface of each well. The antibody that remained unbound was removed by washing.
The hybridoma cell culture obtained in Reference Example 1.1.2 was added in an amount of 50 μL to each well of the plates and incubated for 1 hour. The cells remaining unreacted were washed out with a sufficient amount of Tris-buffered saline and Tween 20 (TBST). Goat anti-mouse IgG-horseradish peroxidase (HRP) was added to the plates and incubated for 1 hour at room temperature. The plates were washed with a sufficient amount of TBST, followed by reacting the peroxidase with a substrate (OPD). Absorbance at 450 nm was measured on an ELISA reader.

The target of a further experiment is T2, EGFR (R&D Systems) (UniProt P00533 25-645, limits assumed).
T2 construct: also called epidermal growth factor receptor
Put plainly: SPR, Biacore T100.

T1 sequence (P08581 25-932 limits assumed): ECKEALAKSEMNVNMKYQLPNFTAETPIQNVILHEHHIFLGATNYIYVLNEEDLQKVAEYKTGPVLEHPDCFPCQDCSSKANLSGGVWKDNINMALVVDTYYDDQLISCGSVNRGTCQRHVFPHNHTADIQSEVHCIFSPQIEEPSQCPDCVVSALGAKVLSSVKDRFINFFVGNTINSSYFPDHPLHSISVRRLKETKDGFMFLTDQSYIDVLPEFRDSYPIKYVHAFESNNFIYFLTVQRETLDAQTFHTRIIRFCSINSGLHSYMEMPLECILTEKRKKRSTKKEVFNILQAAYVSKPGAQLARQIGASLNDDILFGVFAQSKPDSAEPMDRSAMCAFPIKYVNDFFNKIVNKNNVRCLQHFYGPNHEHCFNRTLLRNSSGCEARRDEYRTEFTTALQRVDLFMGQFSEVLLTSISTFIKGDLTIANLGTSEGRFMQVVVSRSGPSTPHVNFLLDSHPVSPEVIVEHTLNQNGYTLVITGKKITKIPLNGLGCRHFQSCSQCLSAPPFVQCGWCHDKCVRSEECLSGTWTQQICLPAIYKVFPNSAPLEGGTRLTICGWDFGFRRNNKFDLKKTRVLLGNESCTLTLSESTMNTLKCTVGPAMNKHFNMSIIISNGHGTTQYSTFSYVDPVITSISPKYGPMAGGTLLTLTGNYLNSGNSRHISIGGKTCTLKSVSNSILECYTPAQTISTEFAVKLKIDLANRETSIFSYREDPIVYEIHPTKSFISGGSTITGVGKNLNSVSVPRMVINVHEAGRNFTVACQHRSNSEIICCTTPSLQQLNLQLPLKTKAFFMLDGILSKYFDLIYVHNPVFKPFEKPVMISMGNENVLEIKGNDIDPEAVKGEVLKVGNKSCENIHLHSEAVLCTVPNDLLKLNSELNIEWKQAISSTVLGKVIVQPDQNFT

B1: AbF46, mouse monoclonal antibody to c-Met (antibody, V domains shown)
VH: EVKLVESGGGLVQPGGSLRLSCATSGFTFTDYYMSWVRQPPGKALEWLGFIRNKANGYTTEYSASVKGRFTISRDNSQSILYLQMDTLRAEDSATYYCARDNWFAYWGQGTLVTVSA
VL: DILMTQSPSSLTVSAGEKVTMSCKSSQSLLASGNQNNYLAWHQQKPGRSPKMLIIWASTRVSGVPDRFIGSGSGTDFTLTINSVQAEDLAVYYCQQSYSAPLTFGAGTKLELK
notes: Screened as hybridoma culture supernatant; also called monoclonal antibody of hybridoma KCLRF-BP-00220
On to B1, for which the binding result in experiment [1] is “binds”.

B2: ME-19, bispecific anti-c-Met/anti-EGFR antibody (anti-c-Met antibody L3-1Y / anti-EGFR DARPin conjugate) (bispecific antibody, human IgG2, kappa)
heavy: EVQLVESGGGLVQPGGSLRLSCAASGFTFTDYYMSWVRQAPGKGLEWLGFIRNKANGYTTEYSASVKGRFTISRDNSKNTLYLQMNSLRAEDTAVYYCARDNWFAYWGQGTLVTVSSASTKGPSVFPLAPCSRSTSESTAALGCLVKDYFPEPVTVSWNSGALTSGVHTFPAVLQSSGLYSLSSVVTVPSSNFGTQTYTCNVDHKPSNTKVDKTVERKCCVECPPCPAPPVAGPSVFLFPPKPKDTLMISRTPEVTCVVVDVSHEDPEVQFNWYVDGVEVHNAKTKPREEQFNSTFRVVSVLTVVHQDWLNGKEYKCKVSNKGLPAPIEKTISKTKGQPREPQVYTLPPSREEMTKNQVSLTCLVKGFYPSDIAVEWESNGQPENNYKTTPPMLDSDGSFFLYSKLTVDKSRWQQGNVFSCSVMHEALHNHYTQKSLSLSPGKGGGGSGGGGSDLGKKLLEAARAGQDDEVRILMANGADVNADDTWGWTPLHLAAYQGHLEIVEVLLKNGADVNAYDYIGWTPLHLAADGHLEIVEVLLKNGADVNASDYIGDTPLHLAAHNGHLEIVEVLLKHGADVNAQDKFGKTAFDISIDNGNEDLAEILQ
light: DIQMTQSPSSLSASVGDRVTITCKSSQSLLASGNQNNYLAWYQQKPGKAPKMLIIWASTRVSGVPSRFSGSGSGTDFTLTISSLQPEDFATYYCQQSYSRPYTFGQGTKVEIKRTVAAPSVFIFPPSDEQLKSGTASVVCLLNNFYPREAKVQWKVDNALQSGNSQESVTEQDSKDSTYSLSSTLTLSKADYEKHKVYACEVTHQGLSSPVTKSFNRGEC
notes: also called c-Met/EGFR bsAb
Take B2: the Kd (usually the equilibrium constant for the complex coming apart) in the experiment with EGFR (R&D Systems) is ~0.35 nM.
